From the supplement of paper PMC12338614
± gives the uncertainty stated by the source.

B1: library; numbered along this chain (parent)
chain: MEVVDPQQLGMFTEGELMSVGMDTFIHRIDSTEVIYQPRRKRAKLIGKYLMGDLLGEGSYGKVKEVLDSETLCRRAVKILKKKKLRRIPNGEANVKKEIQLLRRLRHKNVIQLVDVLYNEEKQKMYMVMEYCVCGMQEMLDSVPEKRFPVCQAHGYFCQLIDGLEYLHSQGIVHKDIKPGNLLLTTGGTLKISDLGVAEALHPFAADDTCRTSQGSPAFQPPEIANGLDTFSGFKVDIWSAGVTLYNITTGLYPFEGDNIYKLFENIGKGSYAIPGDCGPPLSDLLKGMLEYEPAKRFSIRQIRQHSWFRKKHPPAEAPVPIPPSPDTKDRWRSMTVVPYLEDLHGADEDEDLFDIEDDIIYTQDFTVPGQVPEEEASHNGQRRGLPKAVCMNGTEAAQLSTKSRAEGRAPNPARKACSASSKIRRLSACKQQ

Variants of: B1
Assay: STK11 functional score (HeLa growth suppression), rescaled enrichment; synonymous median = 1, nonsense median = 0 (normalised score)
Details: with HeLa; variant type: missense
How it was run: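 The functional score takes the post/pre-selection log ratio, corrects it to wild type, rescales it to synonymous and nonsense medians, and merges it over codons and replicate transfections, with error from bootstrapping. Counts came from tiled gDNA amplicons sequenced on NextSeq (~2 million reads per tile). The libraries were POPCode codon-randomised, codon-optimised STK11 integrated by Bxb1 at an AAVS1 landing pad in HeLa, three regions with three transfections each.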

MEVVDPQQLGMFTEGELMSVGMDTFIHRIDSTEVIYQPRRKRAKLIGKYLMGDLLGEGSYGKVKEVLDSETLCRRAVKILKKKKLRRIPNGEANVKKEIQLLRRLRHKNVIQLVDVLYNEEKQKMYMVMEYCVCGMQEMLDSVPEKRFPVCQAHGYFCQLIDGLEYLHSQGIVHKDIKPGNLLLTTGGTLKISDLGVAEALHPFAADDTCRTSQGSPAFQPPEIANGLDTFSGFKVDIWSAGVTLYNITTGLYPFEGDNIYKLFENIGKGSYAIPGDCGPPLSDLLKGMLEYEPAKRFSIRQIRQHSWFRKKHPPAEAPVPIPPSPDTKDRWRSMTVVPYLEDLHGADEDEDLFDIEDDIIYTQDFTVPGQVPEEEASHNGQRRGLPKAVCMNGTEAAQLSTKSRAEGRAPNPAKKACSASSKIRRLSACKQQ [R415K] and MEVVDPQQLGMFTEGELMSVGMDTFIHRIDSTEVIYQPRRKRAKLIGKYLMGDLLGEGSYGKVKEVLDSETLCRRAVKILKKKKLRRIPNGEANVKKEIQLLRRLRHKNVIQLVDVLYNEEKQKMYMVMEYCVCGMQEMLDSVPEKRFPVCQAHGYFCQLIDGLEYLHSQGIVHKDIKPGNLLLTTGGTLKISDLGVAEALHPFAADDTCRTSQGSPAFQPPEIANGLDTFSGFKVDIWSAGVTLYNITTGLYPFEGDNIYKLFENIGKGSYAIPGDCGPPLSDLLKGMLEYEPAKRFSIRQIRQHSWFRKKHPPAEAPVPIPPSPDTKDRWRSMTVVPYLEDLHGADEDEDLFDIEDDIIYTQDFTVPGQVPEEEASHNGQRRGLPKAVCMNGTEAAQLSTKSRAEGRAPNPARKACSASSKIRRLSACCQQ [K431C] are within error of each other in STK11 functional score: 1.17 ± 0.5 for the first, 1.59 ± 0.34 for the second.

MEVVDPQQLGMFTEGELMSVGMDTFIHRIDSTEVIYQPRRKRAKLIGKYLMGDLLGEGSYGKVKEVLDSETLCRRAVKILKKKKLRRIPNGEANVKKEIQLLRRLRHKNVIQLVDVLYNEEKQKMYMVMEYCVCGMQEMLDSVPEKRFPVCQAHGYFCQLIDGLEYLHSQGIVHKDIKPGNLLLTTGGTLKISDLGVAEALHPFAADDTCRTSQGSPAFQPPEIANGLDTFSGFKVDIWSAGVTLYNITTGLEPFEGDNIYKLFENIGKGSYAIPGDCGPPLSDLLKGMLEYEPAKRFSIRQIRQHSWFRKKHPPAEAPVPIPPSPDTKDRWRSMTVVPYLEDLHGADEDEDLFDIEDDIIYTQDFTVPGQVPEEEASHNGQRRGLPKAVCMNGTEAAQLSTKSRAEGRAPNPARKACSASSKIRRLSACKQQ [Y253E] and MEVVDPQQLGMFTEGELMSVGMDTFIHRIDSTEVIYQPRRKRAKLIGKYLMGDLLGEGSYGKVKEVLDSETLCRRAVKILKKKKLRRIPNGEANVKKEIQLLRRLRHKNVIQLVDVLYNEEKQKMYMVMEYCVCGMQEMLDSVPEKRFPVCQAHGYFCQLIDGLEYLHSQGIVHKDIKPGNLLLTTGGTLKISDLGVAEALHPFAADDTCRTSQGSPAFQPPEIANGLDTFSGFKVDIWSAGVTLYNITTGLYPFEGDNIYKLFENIGKGSYAIPGDCGPPLSDLLKGMLEYEPAKRFSIRQIRQHSWFRKKHPPAEAPVPIPPSPDTKDRWRSMTVVPYLEDLHGADEDEDLFDIEDDIIYTQDFTFPGQVPEEEASHNGQRRGLPKAVCMNGTEAAQLSTKSRAEGRAPNPARKACSASSKIRRLSACKQQ [V368F] are within error of each other in STK11 functional score: 1 ± 0.41 for the first, 0.859 ± 0.25 for the second.

Going from MEVVDPQQLGMFTEGELMSVGMDTFIHRIDSTEVIYQPRRKRAKLIGKYLMGDLCGEGSYGKVKEVLDSETLCRRAVKILKKKKLRRIPNGEANVKKEIQLLRRLRHKNVIQLVDVLYNEEKQKMYMVMEYCVCGMQEMLDSVPEKRFPVCQAHGYFCQLIDGLEYLHSQGIVHKDIKPGNLLLTTGGTLKISDLGVAEALHPFAADDTCRTSQGSPAFQPPEIANGLDTFSGFKVDIWSAGVTLYNITTGLYPFEGDNIYKLFENIGKGSYAIPGDCGPPLSDLLKGMLEYEPAKRFSIRQIRQHSWFRKKHPPAEAPVPIPPSPDTKDRWRSMTVVPYLEDLHGADEDEDLFDIEDDIIYTQDFTVPGQVPEEEASHNGQRRGLPKAVCMNGTEAAQLSTKSRAEGRAPNPARKACSASSKIRRLSACKQQ [L55C] to MEVVDPQQLGMFTEGELMSVGMDTFIHRIDSTEVIYQPRRKRAKLIGKYLMGDLLGEGSYGKVKEVLDSETLCRRAVKILKKKKLRRIPNGEANVKKEIWLLRRLRHKNVIQLVDVLYNEEKQKMYMVMEYCVCGMQEMLDSVPEKRFPVCQAHGYFCQLIDGLEYLHSQGIVHKDIKPGNLLLTTGGTLKISDLGVAEALHPFAADDTCRTSQGSPAFQPPEIANGLDTFSGFKVDIWSAGVTLYNITTGLYPFEGDNIYKLFENIGKGSYAIPGDCGPPLSDLLKGMLEYEPAKRFSIRQIRQHSWFRKKHPPAEAPVPIPPSPDTKDRWRSMTVVPYLEDLHGADEDEDLFDIEDDIIYTQDFTVPGQVPEEEASHNGQRRGLPKAVCMNGTEAAQLSTKSRAEGRAPNPARKACSASSKIRRLSACKQQ [Q100W], the STK11 functional score falls from 1.43 ± 0.52 to 0.696 ± 0.17.

MEVVDPQQLGMFTEGELMSVGMDTFIHRIDSTEVIYQPRRARAKLIGKYLMGDLLGEGSYGKVKEVLDSETLCRRAVKILKKKKLRRIPNGEANVKKEIQLLRRLRHKNVIQLVDVLYNEEKQKMYMVMEYCVCGMQEMLDSVPEKRFPVCQAHGYFCQLIDGLEYLHSQGIVHKDIKPGNLLLTTGGTLKISDLGVAEALHPFAADDTCRTSQGSPAFQPPEIANGLDTFSGFKVDIWSAGVTLYNITTGLYPFEGDNIYKLFENIGKGSYAIPGDCGPPLSDLLKGMLEYEPAKRFSIRQIRQHSWFRKKHPPAEAPVPIPPSPDTKDRWRSMTVVPYLEDLHGADEDEDLFDIEDDIIYTQDFTVPGQVPEEEASHNGQRRGLPKAVCMNGTEAAQLSTKSRAEGRAPNPARKACSASSKIRRLSACKQQ [K41A] and MEVVDPQQLGMFTEGELMSVGMDTFIHRIDSTEVIYQPRRKRAKLIGKYLMGDLLGEGSYGKVKEVLDSETLCRRAVKILKKKKLRRIPNGEANVKKEIQLLRRLRHKNVIQLVDVLYNEEKQKMYMVMEYCVCGMQEMLDSVPEKRFPVCQAHGYFCQLIDGLEYLHSQGIVHKDIKPGNLLLTTGGTLKISDLGVAEALHPFAADDTCRTSQGSPAFQPPEIANGLDTFSGFKVDIWSAGVTLYNITTGLYPFEGDNIYKLFENIGKGSYAIPGDCGPPLSDLLKGMLEYEPAKRFSIRQIRQHSWFRKKHPPAEAPVPIPPSPYTKDRWRSMTVVPYLEDLHGADEDEDLFDIEDDIIYTQDFTVPGQVPEEEASHNGQRRGLPKAVCMNGTEAAQLSTKSRAEGRAPNPARKACSASSKIRRLSACKQQ [D327Y] are within error of each other in STK11 functional score: 1.25 ± 0.34 for the first, 1.36 ± 0.08 for the second.

MEVVDPQQLGMFTEGELMSVGMDTFIHRIDSTEVIYQPRRKRAKLIGKYLMGDLLGEGSYGKVKEVLDSETLCRRAVKILKKKKLRRIPNGEANVKKEIQLLRRLRHKNVIQLVDVLYNEEKQKMYMVMEYCVCGMQEMLDSVPEKRFPVCQAHGYFCQLIDGLEYLHSQGIVHKDIKPGNLLLTTGGTLKISDLGVAEALHPFAADDTCRTSQGSPAFQPPEIANGLDTFSGFKVDIWSAGVTLYNITTGLYPFEGDNIYKLFENIGKGSYAIPGDCGPPLSDLLKGMLEYEPAKRFSIRQIRQHSWFRKKHPPAEAPVPIPPSPDTKDRWRSMTVVPYLEDLHGADEDEDLFDLEDDIIYTQDFTVPGQVPEEEASHNGQRRGLPKAVCMNGTEAAQLSTKSRAEGRAPNPARKACSASSKIRRLSACKQQ [I356L] and MEVVDPQQLGMFTEGELMSVGMDTFIHRIDSTEVIYQPRRKRAKLIGKYLMGDLLGEGSYGKVKEVLDSETLCRRAVKILKKKKLRRIPNGEANVKKEIQLLRRLRHKNVIQLVDVLYNEEKQKMYMVMEYCVSGMQEMLDSVPEKRFPVCQAHGYFCQLIDGLEYLHSQGIVHKDIKPGNLLLTTGGTLKISDLGVAEALHPFAADDTCRTSQGSPAFQPPEIANGLDTFSGFKVDIWSAGVTLYNITTGLYPFEGDNIYKLFENIGKGSYAIPGDCGPPLSDLLKGMLEYEPAKRFSIRQIRQHSWFRKKHPPAEAPVPIPPSPDTKDRWRSMTVVPYLEDLHGADEDEDLFDIEDDIIYTQDFTVPGQVPEEEASHNGQRRGLPKAVCMNGTEAAQLSTKSRAEGRAPNPARKACSASSKIRRLSACKQQ [C134S] are within error of each other in STK11 functional score: 1.15 ± 0.38 for the first, 1.49 ± 0.081 for the second.

MEVVDPQQLGMFTEGELMSVGMDTFIHRIDSTEVIYQPRRKRAKLIGKYLMGDLLGEGSYGKVKEVLDSETLCRRAVKILKKKKLRRIPNGEANVKKEIQLLRRLRHKNVIQLVDVLYNEEKQKMYMVMEYCVCGMQEMLDSVPEKRFPVCQAHGYFCQLIDGLEYLHSQGIVHKDIKPGNLLLTTGGTLKISDLGVAEALHPFAADDTCRTSQGSPAFQPPEIANGLDTFSGFKVDIWSAGVTLYNITTGLYPFEGDNIYKLFENIGKGSYAIPGDCGPPLSDLLKGMLEYEPAKRFSIRQIRQHSWFRKKHPPAEAPVPIPPSPDTKDRWRSMTVVPYLEDLHGADEDEDLFDIEDDIIYTQDFTVPGQVPEEEASHNGQRRGLPKAVCMNGTEARQLSTKSRAEGRAPNPARKACSASSKIRRLSACKQQ [A398R] and MEVVDPQQLGMFTEGELMSVGMDTFIHRIDSTEVIYQPRRKRAKLIGKYLMGDLLGEGSYGKVKEVLDSETLCRRAVKILLKKKLRRIPNGEANVKKEIQLLRRLRHKNVIQLVDVLYNEEKQKMYMVMEYCVCGMQEMLDSVPEKRFPVCQAHGYFCQLIDGLEYLHSQGIVHKDIKPGNLLLTTGGTLKISDLGVAEALHPFAADDTCRTSQGSPAFQPPEIANGLDTFSGFKVDIWSAGVTLYNITTGLYPFEGDNIYKLFENIGKGSYAIPGDCGPPLSDLLKGMLEYEPAKRFSIRQIRQHSWFRKKHPPAEAPVPIPPSPDTKDRWRSMTVVPYLEDLHGADEDEDLFDIEDDIIYTQDFTVPGQVPEEEASHNGQRRGLPKAVCMNGTEAAQLSTKSRAEGRAPNPARKACSASSKIRRLSACKQQ [K81L] are within error of each other in STK11 functional score: 1.42 ± 0.24 for the first, 1.1 ± 0.13 for the second.

Compared with MEVVDPQQLGMFTEGELMSVGMDTFIHRIDSTEVIYQPRRKRAKLIGKYLMGDLLGEGSYGKVKEVLDSSTLCRRAVKILKKKKLRRIPNGEANVKKEIQLLRRLRHKNVIQLVDVLYNEEKQKMYMVMEYCVCGMQEMLDSVPEKRFPVCQAHGYFCQLIDGLEYLHSQGIVHKDIKPGNLLLTTGGTLKISDLGVAEALHPFAADDTCRTSQGSPAFQPPEIANGLDTFSGFKVDIWSAGVTLYNITTGLYPFEGDNIYKLFENIGKGSYAIPGDCGPPLSDLLKGMLEYEPAKRFSIRQIRQHSWFRKKHPPAEAPVPIPPSPDTKDRWRSMTVVPYLEDLHGADEDEDLFDIEDDIIYTQDFTVPGQVPEEEASHNGQRRGLPKAVCMNGTEAAQLSTKSRAEGRAPNPARKACSASSKIRRLSACKQQ [E70S], MEVVDPQQLGMFTEGELMSVGMDTFIHRIDSTEVIYQPRRKRAKLIGKYLMGDLLGEGSYGKVKEVLDSETLCRRAVKILKKKKLRRIPNGEANVKKEIQLLRRLRHKNVIQLVDVLYNEEKQKMYMVMEYCVCGMQEMLDSVPEKRFPVCQAHGYFCQLIDGLEYLHSQGIVHKDIKPGNLLLTTGGTLKISDLGVAEALHPFAADDTCRTSQGSPAFQPPEIANGLDTFSGFKVDIWSAGVTLYNITTGLYPFEGDNIYKLFENIGKGSYAIPGDCGPPLSDLLKGMLEYEPAKRFSIRQIRQHSWFRKKHPPAEAPVPIPPSPDTKDRWKSMTVVPYLEDLHGADEDEDLFDIEDDIIYTQDFTVPGQVPEEEASHNGQRRGLPKAVCMNGTEAAQLSTKSRAEGRAPNPARKACSASSKIRRLSACKQQ [R333K] is higher in STK11 functional score: 0.896 ± 0.15 for the first, 1.61 ± 0.39 for the second.
